Laboratory results: patent US5302370A, “Chelating agents for forming complexes with radioactive isotopes, metal complexes thereof and use thereof in diagnosis and therapy” (Institut fur Diagnostikforschung GmbH, priority 1989, dated 1994)

Columns and labels:
[1] = test system: antigen expressed from the human carcinoma cell line "HT-29"; assay: Immune reactivity of the conjugates by bonding to an excess of antigen in the cell; type: binding; conditions: after gel filtration on PD 10
Protocol: (§1) The bio-distribution of protein-bonded chelates will be described, using a conjugate of F(ab)2 fragments of the monoclonal antibody 17-1A and the compound [7] prepared in Example 1 as a model. The antibody from which the fragments were obtained recognise an antigen expressed from the human carcinoma cell line "HT-29". […] Isolated cells from both lines were subcutaneously administered to immune-deficient hairless mice. After the tumours had grown to a size of 300-800 mg, the mice were intravenously given 20 μg of the chelate conjugate [Example 17] labelled with 200 μCi. The conjugates were first freed from low-molecular constituents by gel filtration on PD 10 columns manufactured by Messrs. Bio-Rad. The immune reactivity of the conjugates was 70-80% as determined by bonding to an excess of antigen in the cell. The bio-distribution 24 hours after administration of the conjugate was determined by killing the animals, removing the organs and measuring the radioactivity therein.

[2] = Bio-distribution of a protein-bonded Tc-99m complex in tumour-bearing hairless mice: organs; type: in vivo, immune-deficient hairless mice; conditions: 24 hours after i.v. 20 μg conjugate labelled with 200 μCi
Protocol: (§2) The monoclonal antibody 17-1A was obtained by methods known in the literature, after application of 10^7 of the corresponding hybridoma cells to the abdominal cavity of a Balb/c-mouse and suction of the ascites fluid after 7-10 days. Purification was brough about likewise by methods known in the literature, by ammonium sulphate precipitation and affinity chromatography over protein A-sepharose. The purified antibody (10 mg/ml) was treated with 25 μg/ml pepsin at pH 3.5 for 2 hours and then isolated by FPLC. Before coupling to the chelating agent, the fragments were dialysed against 0.1M KH2 PO4 /0.1M NaHCO3, pH 8.5, at 4° C. for 12-24 hours. The protein concentration was adjusted to 10 mg/ml. A 5-fold molar excess of the NCS-containing chelating agent [Example 1] was dissolved in a minimum amount of the same buffer and added to the protein solution. In order to form the conjugate, the mixture was incubated at 37° C. for 3 hours. Next, the conjugate was dialysed 24-48 hours against PBS (phosphate-buffered saline) with repeated change of buffer, and the protein concentration was re-adjusted to 10 mg/ml when necessary. Before labelling with Tc-99m, the conjugate could be kept in acid-cleaned glass vessels after sterile filtration at 4° C.
1 mg of the antibody fragment coupled to the chelating agent was labelled with TC-99m by adding 10 mCi pertechnetate solution (=1-2 ml) and 100 μg tin-II chloride in a solution of Na pyrophosphate (1 mg/ml) scavenged with argon or by ligand exchange e.g. by mixing the solution with a commercially obtainable glucoheptonate kit to which pertechnetate had been added.
as §1

[3] = test system: HT-29 human carcinoma (antigen-positive tumour); assay: Bio-distribution of a protein-bonded Tc-99m complex in hairless mice: antigen-positive HT-29 tumour; type: in vivo, human carcinoma in immune-deficient hairless mice
Protocol: as §2, with “In order to form the conjugate, the mixture was incubated at 37° C. for 3 hours. Next, the conjugate was dialysed 24-48 hours against PBS (phosphate-buffered saline) with repeated change of buffer, and the protein concentration was re-adjusted to 10 mg/ml when necessary. Before labelling with Tc-99m, the conjugate could be kept in acid-cleaned glass vessels after sterile filtration at 4° C.” left out
(§3) The bio-distribution of protein-bonded chelates will be described, using a conjugate of F(ab)2 fragments of the monoclonal antibody 17-1A and the compound [7] prepared in Example 1 as a model. […] The immune reactivity of the conjugates was 70-80% as determined by bonding to an excess of antigen in the cell. The bio-distribution 24 hours after administration of the conjugate was determined by killing the animals, removing the organs and measuring the radioactivity therein.

[4] = test system: MX-1 human carcinoma (control, antigen not expressed); assay: Bio-distribution of a protein-bonded Tc-99m complex in hairless mice: antigen-negative MX-1 control tumour; type: in vivo, human carcinoma in immune-deficient hairless mice; conditions: MX-1 tumour (300-800 mg); 24 hours after i.v. 20 μg conjugate labelled with 200 μCi
Protocol: as §2, with “In order to form the conjugate, the mixture was incubated at 37° C. for 3 hours. Next, the conjugate was dialysed 24-48 hours against PBS (phosphate-buffered saline) with repeated change of buffer, and the protein concentration was re-adjusted to 10 mg/ml when necessary. Before labelling with Tc-99m, the conjugate could be kept in acid-cleaned glass vessels after sterile filtration at 4° C.” left out
as §3

B1: conjugate of F(ab)2 fragments of the monoclonal antibody 17-1A and the compound [7]: conjugate of F(ab)2 fragments of the monoclonal antibody 17-1A and the compound [7] prepared in Example 1, … (conjugate, chains of the INN, looked up)
VH: QVQLQQSGAELVRPGTSVKVSCKASGYAFTNYLIEWVKQRPGQGLEWIGVINPGSGGTNYNEKFKGKATLTADKSSSTAYMQLSSLTSDDSAVYFCARDGPWFAYWGQGTLVTVSA
VL: NIVMTQSPKSMSMSVGERVTLTCKASENVVTYVSWYQQKPEQSPKLLIYGASNRYTGVPDRFTGSGSATDFTLTISSVQAEDLADYHCGQGYSYPYTFGGGTKLEIK
modifications: F(ab')2 chelate compound [7], Tc-99m label
[1]
  immune reactivity of the conjugates: 70-80%
[2]; blood
  % of applied dose per gram of tissue, Blood: 0.6 % of applied dose per gram of tissue
[2]; kidneys
  % of applied dose per gram of tissue, Kidneys: 2.8 % of applied dose per gram of tissue
[2]; liver
  % of applied dose per gram of tissue, Liver: 1.2 % of applied dose per gram of tissue
[2]; lung
  % of applied dose per gram of tissue, Lung: 0.8 % of applied dose per gram of tissue
[2]; muscle
  % of applied dose per gram of tissue, Muscle: 0.1 % of applied dose per gram of tissue
[2]; spleen
  % of applied dose per gram of tissue, Spleen: 0.3 % of applied dose per gram of tissue
[3]; 24 hours after i.v. administration
  concentration of the chelate in the antigen-positive tumour: marked concentration of the chelate in the antigen-positive tumour
[3]; HT29 tumour (300-800 mg), 24 hours after i.v. 20 μg conjugate labelled with 200 μCi
  % of applied dose per gram of tissue, HT29: 12.1 % of applied dose per gram of tissue
[4]
  % of applied dose per gram of tissue, MX-1: 1.8 % of applied dose per gram of tissue
